Source: paper doi:10.1101/2022.04.29.490010 (bioRxiv, 2022)
Positions count from the first letter of the chain named. In names and notes the source's numbering stands.

B1: ENDOA1^WT (human Endophilin-A1, recombinant, GST tag cleaved) (natural protein, UniProt Q99962 1-352, looked up)
chain: MSVAGLKKQFHKATQKVSEKVGGAEGTKLDDDFKEMERKVDVTSRAVMEIMTKTIEYLQPNPASRAKLSMINTMSKIRGQEKGPGYPQAEALLAEAMLKFGRELGDDCNFGPALGEVGEAMRELSEVKDSLDIEVKQNFIDPLQNLHDKDLREIQHHLKKLEGRRLDFDYKKKRQGKIPDEELRQALEKFDESKEIAESSMFNLLEMDIEQVSQLSALVQAQLEYHKQAVQILQQVTVRLEERIRQASSQPRREYQPKPRMSLEFPTGDSTQPNGGLSHTGTPKPSGVQMDQPCCRALYDFEPENEGELGFKEGDIITLTNQIDENWYEGMLHGHSGFFPINYVEILVALPH
B2: ENDOA1^G276V (human Endophilin-A1 with the Parkinson's disease risk variant G276V, recombinant, GST tag cleaved) (natural protein, UniProt Q99962 1-352, looked up)
chain: B1 chain with G276V
B3: EndoA wild type (Drosophila Endophilin-A, GST tag cleaved) (natural protein, UniProt Q8T390 1-369, looked up)
chain: MAFAGLKKQINKANQYMTEKMGGAEGTKLDMDFMEMERKTDVTVELVEELQLKTKEFLQPNPTARAKMAAVKGISKLSGQAKSNTYPQPEGLLAECMLTYGKKLGEDNSVFAQALVEFGEALKQMADVKYSLDDNIKQNFLEPLHHMQTKDLKEVMHHRKKLQGRRLDFDCKRRRQAKDDEIRGAEDKFGESLQLAQVGMFNLLENDTEHVSQLVTFAEALYDFHSQCADVLRGLQETLQEKRSEAESRPRNEFVPKTLLDLNLDGGGGGLNEDGTPSHISSSASPLPSPMRSPAKSMAVTPQRQQQPCCQALYDFEPENPGELAFKENDIITLLNRVDDNWFEGAVNGRTGYFPQSYVQVQVPLPNGN
B4: EndoA^D265A (Drosophila Endophilin-A D265A, GST tag cleaved) (natural protein, UniProt Q8T390 1-369, looked up)
chain: B3 chain with D265A
B5: EndoA^D265R (Drosophila Endophilin-A D265R, GST tag cleaved) (natural protein, UniProt Q8T390 1-369, looked up)
chain: B3 chain with D265R

What was measured:
SEC = target: the molecule itself; assay: SEC
SEC-MALS = target: the molecule itself; assay: SEC-MALS

Protein	stoichiometry N (SEC)	stoichiometry N (SEC-MALS)
B1	2	–
B2	2	–
B3	–	2
B4	–	2
B5	–	2
